Results as given in patent US20140223606, “COMPOSITIONS AND METHODS COMPRISING SEQUENCES HAVING MEGANUCLEASE ACTIVITY” (PIONEER HI BRED INTERNATIONAL INC, published 2014).
Positions count from the first letter of the chain named.

Experiments:
Conditions in all cases: tags: NLS, 6xHis
ZM6.3 = molecular target: T1, ZM6.3 (artificial); test: cell_activity; yeast 37 C; 28 C: 0
T1 chain: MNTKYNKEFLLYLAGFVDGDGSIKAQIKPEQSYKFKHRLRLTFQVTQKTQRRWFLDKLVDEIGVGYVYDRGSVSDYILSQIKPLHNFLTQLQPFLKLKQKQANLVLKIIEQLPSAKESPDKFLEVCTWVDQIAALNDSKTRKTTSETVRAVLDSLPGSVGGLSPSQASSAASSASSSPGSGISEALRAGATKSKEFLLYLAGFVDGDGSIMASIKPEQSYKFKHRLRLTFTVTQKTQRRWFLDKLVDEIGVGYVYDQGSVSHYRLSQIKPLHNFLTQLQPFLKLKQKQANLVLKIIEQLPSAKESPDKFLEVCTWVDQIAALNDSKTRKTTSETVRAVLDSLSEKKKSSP
Protocol: (§1) A 3 mL culture of selective media (MP Biomedical) was inoculated with a single colony of the yeast screening strain and grown at 30° C. overnight. On the following day, a 50 ml YPD culture (MP Biomedical) was started with 2 ml of the overnight culture and grown at 30° C. overnight. On the following day, the cells were harvested by centrifugation at 4000 rpm. The cells were resuspended in 100 ml ice cold water and centrifuged again. The cells were then washed in 1.2 M sorbitol, followed by treatment with 2 ml of 10 mM Tris pH 8.0, 1 mM EDTA, 100 mM Lithium acetate, 10 mM DTT, 0.6M sorbitol for 30 minutes at 30° C. with shaking. The cells were recovered by centrifugation, washed in 40 ml 1.2M sorbitol and finally resuspended in 250 microliters of 1.2M sorbitol. 50 microliter aliquots were transferred to test tubes on ice. Up to 5 microliters of DNA (100-500 nanograms) were added. The suspension was transferred to a 0.2 cm electroporation cuvette, on ice. Electroporation was performed with a pulse charge at 1.5 kV, 200 ohms, 25 microF (pulse time of 5 milliseconds). 1 mL YPD media (MP Biomedical) was added and the cells were allowed to recover at 30° C. for 1-2 hr. The cells were centrifuged, resuspended in 100 uL 1M sorbitol and plated on selective media lacking leucine and containing 2% galactose. The resulting yeast colonies were incubated at various temperatures ranging from 22 to 37 degrees Celsius for 7-10 days. I-CreI and meganucleases derived from it have maximal activity at or above 37 degrees Celsius. Screening was performed at a range of temperatures from 22 to 37 degrees in order to observe increases in activity at lower temperatures which are relevant to certain biological systems (eg. plant cells, plant cell cultures, etc). At that time the red/white sectoring phenotype, indicative of meganuclease activity was observed. Colonies with increased white sectoring over the parental meganuclease (indicating colonies expressing a meganuclease with increased meganuclease activity), also referred to as “hits” and sometimes completely white, were isolated for further analysis. […]

ZM6.3(3) = molecular target: T2, ZM6.3(3) (artificial); test: cell_activity; yeast 37 C; 28 C: 0
T2 chain: T1 chain with E117G
Protocol: as §1

ZM6.3(G5) = molecular target: T3, ZM6.3(G5) (artificial); test: cell_activity; yeast 37 C; 28 C: 0
T3 chain: T1 chain with Y12H, V73A, E124R
Protocol: as §1

ZM6.3(H1) = molecular target: T4, ZM6.3(H1) (artificial); test: cell_activity; yeast 37 C; 28 C: 4
T4 chain: T1 chain with Y12H, K24M, S32R, E124R, V129A, F241I, E311R
Protocol: (§2) A 3 mL culture of selective media (MP Biomedical) was inoculated with a single colony of the yeast screening strain and grown at 30° C. overnight. On the following day, a 50 ml YPD culture (MP Biomedical) was started with 2 ml of the overnight culture and grown at 30° C. overnight. On the following day, the cells were harvested by centrifugation at 4000 rpm. The cells were resuspended in 100 ml ice cold water and centrifuged again. The cells were then washed in 1.2 M sorbitol, followed by treatment with 2 ml of 10 mM Tris pH 8.0, 1 mM EDTA, 100 mM Lithium acetate, 10 mM DTT, 0.6M sorbitol for 30 minutes at 30° C. with shaking. The cells were recovered by centrifugation, washed in 40 ml 1.2M sorbitol and finally resuspended in 250 microliters of 1.2M sorbitol. 50 microliter aliquots were transferred to test tubes on ice. Up to 5 microliters of DNA (100-500 nanograms) were added. The suspension was transferred to a 0.2 cm electroporation cuvette, on ice. Electroporation was performed with a pulse charge at 1.5 kV, 200 ohms, 25 microF (pulse time of 5 milliseconds). 1 mL YPD media (MP Biomedical) was added and the cells were allowed to recover at 30° C. for 1-2 hr. The cells were centrifuged, resuspended in 100 uL 1M sorbitol and plated on selective media lacking leucine and containing 2% galactose. The resulting yeast colonies were incubated at various temperatures ranging from 22 to 37 degrees Celsius for 7-10 days. I-CreI and meganucleases derived from it have maximal activity at or above 37 degrees Celsius. Screening was performed at a range of temperatures from 22 to 37 degrees in order to observe increases in activity at lower temperatures which are relevant to certain biological systems (eg. plant cells, plant cell cultures, etc). At that time the red/white sectoring phenotype, indicative of meganuclease activity was observed. Colonies with increased white sectoring over the parental meganuclease (indicating colonies expressing a meganuclease with increased meganuclease activity), also referred to as “hits” and sometimes completely white, were isolated for further analysis.
(§3) A total of 15 Zm6.3 variants with increased activity were confirmed in the yeast system (as described in Example 6). Increased activity was observed across a range of temperatures: 28 degrees Celsius, 30 degrees Celsius and 37 degrees Celsius, as shown in Table 15.

ZM6.3(H5) = molecular target: T5, ZM6.3(H5) (artificial); test: cell_activity; yeast 37 C; 28 C: 4
T5 chain: T1 chain with Y12H, F54I, V105A, E124R
Protocol: as §2, §3

B1: ZM6.3 recognition site (dsDNA)
DNA 1: CAGGCTCTCGTAAATGCGCCTG
DNA 2: CAGGCGCATTTACGAGAGCCTG
ZM6.3
  activity: 2 score 0-4
ZM6.3(3)
  activity: 2 score 0-4
ZM6.3(G5)
  activity: 2 score 0-4
ZM6.3(H1)
  activity: 4 score 0-4
ZM6.3(H5)
  activity: 4 score 0-4
